Reference: patent US20220195067A1 (LAMKAP BIO BETA, published 2022)

Key:
[1] = molecular target: T1, human CEACAM5 on CEACAM5-expressing cancer cell lines (human, UniProt P06731 35-685); experiment: flow cytometry on MKN-45 cells, K2AC100 directly labeled with a fluorochrome, no competitor
T1 construct: whole, on cells; also called CEACAM5 on SK-CO-1, MKN-45, HPAF-II, SNU-C1, Ls174T, LoVo cells
T1 sequence (looked up): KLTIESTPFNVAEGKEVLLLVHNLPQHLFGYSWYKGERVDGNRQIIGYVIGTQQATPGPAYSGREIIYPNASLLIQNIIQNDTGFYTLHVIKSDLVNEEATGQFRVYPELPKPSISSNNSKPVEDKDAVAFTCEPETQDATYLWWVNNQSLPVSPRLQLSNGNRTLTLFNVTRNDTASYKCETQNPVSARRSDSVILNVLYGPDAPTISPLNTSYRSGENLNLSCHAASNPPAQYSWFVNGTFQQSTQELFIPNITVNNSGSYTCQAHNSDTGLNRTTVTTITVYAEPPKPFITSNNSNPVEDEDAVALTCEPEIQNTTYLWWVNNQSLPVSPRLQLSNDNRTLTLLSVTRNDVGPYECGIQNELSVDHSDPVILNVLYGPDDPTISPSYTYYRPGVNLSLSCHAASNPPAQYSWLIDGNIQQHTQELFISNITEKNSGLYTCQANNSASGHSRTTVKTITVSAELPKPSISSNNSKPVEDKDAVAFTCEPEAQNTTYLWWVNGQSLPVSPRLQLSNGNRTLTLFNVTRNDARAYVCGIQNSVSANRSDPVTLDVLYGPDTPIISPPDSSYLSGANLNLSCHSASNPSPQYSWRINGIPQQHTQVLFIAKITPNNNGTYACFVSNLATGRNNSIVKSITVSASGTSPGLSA
Procedure: (§1) A binding assay to cells expressing CEACAM5 was performed as described in Example 6. […] An antibody was regarded as non-competitive if 300 nM of the antibody shifts the binding curve of a bispecific antibody of the invention by less than a factor of 3.
(§2) In this experiment, the concentration-dependent binding of CD47×CEACAM5 bispecific antibody K2AC100 was measured in the presence of an anti-CEACAM5 mAbs, either TCB2014 or TCB 2017. This binding was measured at the cell surface of CEACAM5-expressing MKN-45 cells. K2AC100 was directly labeled with a fluorochrome to follow its binding on MKN-45 cells alone (dark line, dark circles), in presence of 300 nM of TCB2014 (dark line, dark triangles) or 30 nM of TCB2017 (dark line, black diamonds). Negative controls (Ctrl) were used (IgG1 in presence of TCB2014 or TCB2017). […] Therefore, the K2AC100 antibody is non-competitive with the TCB2014 and TCB2017 antibodies with respect to CEACAM5 binding.

[2] = molecular target: T1, human CEACAM5 on CEACAM5-expressing …; experiment: flow cytometry on MKN-45 cells, K2AC100 directly labeled with a fluorochrome, in presence of 30 nM TCB2017
Procedure: as §1, §2

[3] = molecular target: T1, human CEACAM5 on CEACAM5-expressing …; experiment: flow cytometry on MKN-45 cells, K2AC100 directly labeled with a fluorochrome, in presence of 300 nM TCB2014
Procedure: as §1, §2

EC50 (read off the curve) [1]: ~2 µg/mL
EC50 (read off the curve) [2]: ~2 µg/mL
EC50 (read off the curve) [3]: ~2 µg/mL
B1: K2AC100 (bispecific antibody, human IgG1, kappa, lambda)
heavy: not shown
light 1: QSVLTQPPSVSAAPGQKVTISCSGSSSNIGYGLVSWYQQLPGTAPKLLIYNGNIRPSGIPDRFSGSKSGTSATLGITGLQTGDEADYYCGTWDFSYRVDFGGGTKLTVLGQPKAAPSVTLFPPSSEELQANKATLVCLISDFYPGAVTVAWKADSSPVKAGVETTTPSKQSNNKYAASSYLSLTPEQWKSHRSYSCQVTHEGSTVEKTVAPTECS
light 2: not shown
notes: Kappa-lambda body; also called CD47xCEACAM5 bispecific antibody K2AC100; AC100 (CEACAM5 arm)
